Measured values: patent publication US20250000991A1, “NECTIN-4 ANTIBODIES AND ANTIBODY-DRUG CONJUGATES” (Eli Lilly and Company, priority 2023, published 2025)
Several values for one entry are separate records, joined by “and”; a condition that tells them apart may be missing. Equal values may be shown once.

How the values were obtained:
[1] = molecular target: T1, human Nectin-4 (Homo sapiens, UniProt Q96NY8); assay: Surface plasmon resonance (Biacore 8K+) binding of nectin-4 ADCs to human Nectin-4; details: human Nectin-4, 37° C., ADC Formula XI DAR 8; n=3 mean ± SD, n=2 replicate values
T1 construct: His tag; purchased Acro Biosystems NE4-H52H3
T1 sequence (Q96NY8 32-510): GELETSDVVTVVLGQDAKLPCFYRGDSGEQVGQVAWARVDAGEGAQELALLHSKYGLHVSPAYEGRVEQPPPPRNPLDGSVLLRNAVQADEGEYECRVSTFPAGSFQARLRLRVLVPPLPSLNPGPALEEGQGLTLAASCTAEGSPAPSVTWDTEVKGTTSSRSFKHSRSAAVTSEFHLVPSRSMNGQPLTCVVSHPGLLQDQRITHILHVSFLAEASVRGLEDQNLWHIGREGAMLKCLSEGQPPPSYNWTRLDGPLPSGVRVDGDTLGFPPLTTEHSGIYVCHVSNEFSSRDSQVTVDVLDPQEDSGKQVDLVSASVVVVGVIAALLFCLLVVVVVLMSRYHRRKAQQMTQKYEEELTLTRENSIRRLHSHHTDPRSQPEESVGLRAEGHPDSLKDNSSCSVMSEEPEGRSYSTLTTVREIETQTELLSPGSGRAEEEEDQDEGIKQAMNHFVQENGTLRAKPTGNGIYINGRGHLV
Experimental: (§1) An anti-human Fc sensor surface was prepared by amine-coupling of goat anti-human IgG Fc (Southern Biotech Cat. No. 2014-01, Birmingham, AL) to a Biacore Series S CM4 (Cytiva Cat. No. BR-100534) sensor surface at 25° C. For immobilization, a running buffer of 10 mM HEPES, 150 mM NaCl, 0.05% Tween-20, pH 7.4 was used. Flow cells 1 & 2 of all 8 channels were activated with a 1:1 (v/v) mixture of 400 mM 1-Ethyl-3-(3-dimethylaminopropyl) carbodiimide hydrochloride (EDC) and […] N-Hydroxysuccinimide (NHS) at a flow rate of 10 uL/min for 7 minutes. Then the anti-human IgG Fc capture reagent was coupled to the sensor surface (diluted to 50 μg/mL in 10 mM Acetate pH 4.5 buffer) by injecting it in all flow cells and channels at a flow rate of 10 uL/min for 7 minutes. Remaining active groups were blocked by injecting 100 mM ethylenediamine (in 200 mM Borate buffer, pH 8.5) in all flow cells and channels at a flow rate of 10 uL/min for 7 minutes. All channels and flow cells were then preconditioned using three consecutive 1-minute injections of 75 mM phosphoric acid at 10 uL/min.
(§2) In each analysis cycle, a different ADC was captured on flow cell 2 of each channel by injecting it at 5 μg/mL and 10 uL/min. After capture, the same analyte was injected on flow cells 1 and 2 in all 8 channels for 2 minutes at 30 uL/n and dissociation was monitored for 10 minutes. After dissociation, all surfaces were regenerated with three 1-minute injections of 5 mM phosphoric acid at 10 uL/min. ADC capture and analyte cycles were repeated to obtain analyte binding of each ADC at concentrations of 0, 2.5, 7.4, 22, 67, 200 and 600 nM nectin-4.
(§3) Sensorgram data were fit globally with the default 1:1 binding model in Biacore Insight Evaluation Software v3.0.12.15655.

[2] = system: rat Nectin-4; assay: Surface plasmon resonance (Biacore 8K+) binding of nectin-4 ADCs to rat Nectin-4; details: rat Nectin-4, 37° C., ADC Formula XI DAR 8, n=1
Experimental: as §1, §2, §3

[3] = system: UMUC3-Luc-GFP + UMUC3-hNectin4 clone F7; assay: Bystander killing of UMUC3-Luc-GFP cells co-cultured with UMUC3-hNectin4 clone F7 (ONE-Glo); format: cell-based, human; details: UMUC3-hNectin-4 cloneF7/UMUC3-Luciferase-GFP 4:1, 5 days
Experimental: UMUC3 cell line was engineered to express human Nectin4 and two clonal populations with different levels of expression were selected. In flat white clear-bottom 96-well plates, UMUC3-hNectin4 clone F7/UMUC3-Luc-GFP cells were mixed and seeded at a total of 1500 cells/well/100 ul with a ratio of 4:1 in assay medium (MEM+1× GlutaMax+10% Heat Inactivated Fetal Bovine Serum+1 mM sodium pyruvate). UMUC3-hNectin4 clone E3/UMUC3-Luc-GFP cells were mixed and seeded at a total of 2100 cells/well/100 ul with a ratio of 6:1 in assay medium. UMUC3-Luc-GFP cells were negative for nectin-4 expression. Plates were incubated at 37° C. with 5% CO2 overnight. […] Plates were read after 5-days treatment using ONE-GloTM Luciferase Assay System. […] Luminescence was read in the SpectraMax M5e. […] Percentage of UMUC3-Luc-GFP killing was calculated against no treatment as 0%. Data was graphed and analyzed using Graphpad Prism version 9.5.1. IC50 was determined via log(inhibitor) vs. response (three parameters) curve fitting for bystander activity and log(inhibitor) vs. response (four parameters) for free payload cytotoxicity. […] In experiments run as essentially described herein, the bystander effects of four nectin-4 ADCs described herein and enfortumab vedotin were evaluated using the UMUC3-hNectin-4 cloneF7/UMUC3-Luciferase-GFP cell pair. […]

[4] = system: cyno Nectin-4; assay: Surface plasmon resonance (Biacore 8K+) binding of nectin-4 ADCs to cyno Nectin-4; details: cyno Nectin-4, 37° C., ADC Formula XI DAR 8, n=1
Experimental: as §1, §2, §3

[5] = system: T24 mScarlet clone 5 Nectin-4 negative cells; assay: Bystander killing of T24-mScarlet clone 5 cells co-cultured with T24-human nectin4 clone108 (imaging); format: cell-based; details: T24-mScarlet clone5 : T24-human nectin4 clone108 9:1, 5 days, ADC Formula XI DAR 8; read-out: IC50 of bystander effect
Experimental: T24 cell line was engineered to express mScarlet and clonally selected to test in bystander assay. T24-mScarlet clone5 and T24-human nectin4 clone108 were mixed and seeded at a total of 1000 cells/well/100 ul with a ratio of 9:1 in culture medium (McCoy's 5A+1× GlutaMax+10% Heat Inactivated Fetal Bovine Serum+400 μg/ml G418) in flat clear bottom 96-well plates. T24 mScarlet clone 5 cells were negative for nectin-4 expression. Plates were incubated at 37° C. with 5% CO2 overnight. Next day, ADCs were added at final working concentration from 50 nM, 1:4 serially diluted in culture medium. Plates were covered with Breathe-Easy® sealing membrane, placed in BioSpa and scanned in Cytation5 every day for 5 days.
Images of T24-mScarlet cells were captured and analyzed by Cytation5 with Gen5 Image Prime 3.11. Percentage of T24-mScarlet cell killing was calculated by decreased Integrated Intensity (area×mean intensity), normalized to zero hour and no treatment. Data was graphed and analyzed using GraphPad Prism version 9.5.1. IC50 was determined via log(inhibitor) vs. response-variable slope (four parameters) curve fitting.

B1: Ab1a (conjugate)
heavy: QVQLVQSGAQVKKPGASVKVSCKASGYTFTGYYIHWVRQAPGQGLEWMGWINPNSGGTNYAQKFQGRVTMTRDTSISTAYMELSRLRSDDTAVYFCAREDWDFDYWGQGTLVTVSSASTKGPSVFPLAPSSKSTSGGTAALGCLVKDYFPEPVTVSWNSGALTSGVHTFPAVLQSSGLYSLSSVVTVPSSSLGTQTYICNVNHKPSNTKVDKRVEPKSCDKTHTCPPCPAPEAAGGPSVFLFPPKPKDTLMISRTPEVTCVVVSVSHEDPEVKFNWYVDGVEVHNAKTKPREEQYNSTYRVVSVLTVLHQDWLNGKEYKCKVSNKALPAPIEKTISKAKGQPREPQVYTLPPSREEMTKNQVSLTCLVKGFYPSDIAVEWESNGQPENNYKTTPPVLDSDGSFFLYSKLTVDKSRWQQGNVFSCSVMHEALHNHYTQKSLSLSPGK
light: EIVLTQSPGTLSLSPGERATLSCRTSQSVSSSYLAWYQQKPGQAPRLLIYGASNRATDIPDRFSGSGSGTDFTLTINRLEPEDFAVYYCQQYGSSPITFGQGTRLEIKRTVAAPSVFIFPPSDEQLKSGTASVVCLLNNFYPREAKVQWKVDNALQSGNSQESVTEQDSKDSTYSLSSTLTLSKADYEKHKVYACEVTHQGLSSPVTKSFNRGEC
For B1, the ka [1] was 2.83 × 10^5, 1/Ms and 4.24 × 10^5 1/Ms, the kd [1] was 4.02 × 10^−2, 1/s and 3.08 × 10^−2 1/s and the ka [2] was 252000 M⁻¹ s⁻¹. For the same molecule, the kd [2] was 0.0453 s⁻¹, the “Bystander effect (in words)” value [3] was “potent bystander effects” and the ka [4] was 310000 M⁻¹ s⁻¹. The kd [4] was 0.026 s⁻¹ and the IC50 [5] was 0.041 nM.
